Drawing on doi:10.1101/2025.05.14.653996, this text covers cluster detachment, fold faster, fold decrease of the median detachment time from 0.01 to 0.04 pN per Tpm dimer and cluster detachment, fold slower than sfGFP-Tpm1.6 for two substances.

For this experiment, the target named is actin filament, unlabelled segment of recombinant cytoplasmic β-actin (UniProt P60709). As to the kind of experiment: TIRF microscopy of single actin filaments under flow in a microfluidic chamber.

Consider sfGFP-Tpm1.6 (natural protein), for which the cluster detachment, fold faster at 50 mM KCl than at 100 mM KCl stood at 36 fold and the fold decrease of the median detachment time from 0.01 to 0.04 pN per Tpm dimer is more than 100 fold. For the substance sfGFP-Tpm1.7 (natural protein), the cluster detachment, fold slower than sfGFP-Tpm1.6 is 5.5 fold.
